T1: CXCR2 (UniProt P25025 1-360, limits assumed)
T1 construct: whole, on cells; also called 2222
T1 sequence (looked up): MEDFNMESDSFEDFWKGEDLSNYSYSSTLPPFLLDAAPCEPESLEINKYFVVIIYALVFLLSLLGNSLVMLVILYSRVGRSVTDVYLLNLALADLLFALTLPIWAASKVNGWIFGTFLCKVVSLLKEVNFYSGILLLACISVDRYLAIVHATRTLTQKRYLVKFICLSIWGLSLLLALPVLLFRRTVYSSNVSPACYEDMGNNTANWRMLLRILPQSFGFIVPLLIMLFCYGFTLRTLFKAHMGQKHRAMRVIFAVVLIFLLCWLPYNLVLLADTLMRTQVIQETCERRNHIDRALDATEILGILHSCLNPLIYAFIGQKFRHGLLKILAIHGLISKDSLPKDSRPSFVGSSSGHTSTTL

B1: 19-Fc (Fc fusion)
VH: QVQLVQSGGGVVQPGRSLRLSCAASGFTFSSYPMHWVRQAPGKGLEWMTVISSDGRNKYYPDSVKGRFTISRDNSKNTLYLQMNSLRPEDTAVYYCARGGYHDFWSGPDYWGQGTLVTVSS
VL: EIVLTQSPATLSVSPGERATLSCRASQSVNTNLAWYQQKPGQAPRLLIYGASSRATGIPDRFSGSGSGTDFTLTISRLEPEDFAVYYCQHYGSSPLTFGGGTKLEIK
notes: scFv-Fc fusion; also called X19; scFv-Fc 19
B2: 33-IgG1 (antibody, V domains shown)
VH: QVTLKESGGGVVQPGRSLRLSCAASGFTFTNYGLHWVRQAPGKGLEWVAVISHDGTKKYYADSVKGRFTISRDSSENTLYLQMNSLRPEDSALYYCARDGGYCSGGRCYSYGMDVWGQGTTVTVSS
VL: QSVLTQPPSASGTPGQRVTISCSGSRSNIGSNTVNWYQQLPGTAPKLLIYTNNQRPSGVPDRFSGSKSGTSASLAITGLQAEDEADYYCLSFDSSLTSYVFGTGTKVTVLG
notes: Bivalent whole human IgG1, VH and VL subcloned into human IgG1 lambda light chain expression vector TCAE6; also called mAb 33
B3: 48-IgG1 (antibody, V domains shown)
VH: QVQLVQSGGGVVLPGRSLRLSCVASGFTFRRYGMHWVRQAPGKGLEWVSLISYDGSKTFYGESVKGRFTISRDNSKNTLYLQMNSLRAEDTAVYYCARATVTTDGYYYMDVWGKGTTVTVSS
VL: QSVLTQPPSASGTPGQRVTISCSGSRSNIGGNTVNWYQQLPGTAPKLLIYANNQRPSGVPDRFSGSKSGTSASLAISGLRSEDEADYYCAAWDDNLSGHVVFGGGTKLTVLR
notes: Bivalent whole human IgG1, VH and VL subcloned into human IgG1 lambda light chain expression vector TCAE6; also called mAb 48
B4: 18-Fc (Fc fusion)
VH: QVQLVQSGAEVKKPGASVKVSCKASGYTFTSYGISWVRQAPGQGLEWMGWISAYNGNTNYAQKLQGRVTMTTDTSTSTAYMELRSLRSDDTAVYYCARDTPGIAARRYYYYGMDVWGQGTTVTVSS
VL: SSELTQDPAVSVALGQTVRITCQGDSLRKFFASWYQQKPGQAPVLVIYGKNSRPSGIPDRFSGSNSRNTASLTITGAQAEDEGDYYCNSRDSRDNHQVFGAGTKVTVL
notes: scFv-Fc fusion; also called X18; scFv-Fc 18

Assays:
mouse CXCR4 = biological target: T2, mouse CXCR4 (mouse, UniProt P70658 1-359); test: flow cytometry, scFv-Fc on transfected 293T cells, FITC anti-human IgG
T2 construct: whole, on cells; also called mice CXCR4
Experimental: (§1) Epitope mapping experiments were performed to determine the binding sites for the anti-CXCR4 antibodies of the invention. (See Example 5. infra). […] Analysis was performed using a flow cytometer. Binding activity was measured by MFI on total cells gated. The following formula was used to calculate the reactivity:reactivity to each clone=(MFI of chimeric receptor/MFI of wild type CXCR4)×100%.
(§2) Thirty six hours after transfection, the cells were harvested. […] The cells were then washed two times with 0.5% BSA/PBS/0.02% NaN3.
(§3) Next, FITC-labeled secondary antibodies were added to the cells and were allowed to incubate at 4° C. for 30 minutes. The cells were then washed again two times with 0.5% BSA/PBS/0.02% NaN3. Following the second wash, FACS analysis was performed.

[1] = biological target: T3, 2444b CXCR2/CXCR4 chimera (human, UniProt P25025 1-48; P61073 39-352, limits assumed); test: as above
Experimental: as §1, §2, §3

human CXCR4 (wild type) [2] = biological target: T4, human CXCR4 (wild type) (human, UniProt P61073 1-352); test: as above
T4 construct: whole, on cells; also called wtCXCR4
Experimental: as §1, §2, §3

[3] = biological target: T5, rhesus macaque monkey CXCR4 (rhesus macaque, UniProt P79394 1-352); test: as above
T5 construct: whole, on cells
Experimental: as §1, §2, §3

2442 CXCR2/CXCR4 chimera [4] = test: as above
Experimental: as §1, §2, §3

2242 CXCR2/CXCR4 chimera = test: as above
Experimental: as §1, §2, §3

Δ-X4 = test: as above
Experimental: as §1, §2, §3

4442 CXCR2/CXCR4 chimera [5] = test: as above
Experimental: as §1, §2, §3

CXCR2 = biological target: T1, CXCR2; test: as above
Experimental: as §1, §2, §3

[6] = biological target: T3, 2444b CXCR2/CXCR4 chimera; test: FACS on 293T cells expressing CXCR4 variants
human CXCR4 (wild type) [7] = biological target: T4, human CXCR4 (wild type); test: FACS on 293T cells expressing CXCR4 variants
2442 CXCR2/CXCR4 chimera [8] = test: FACS on 293T cells expressing CXCR4 variants
4442 CXCR2/CXCR4 chimera [9] = test: FACS on 293T cells expressing CXCR4 variants

T4 sequence (P61073 whole entry): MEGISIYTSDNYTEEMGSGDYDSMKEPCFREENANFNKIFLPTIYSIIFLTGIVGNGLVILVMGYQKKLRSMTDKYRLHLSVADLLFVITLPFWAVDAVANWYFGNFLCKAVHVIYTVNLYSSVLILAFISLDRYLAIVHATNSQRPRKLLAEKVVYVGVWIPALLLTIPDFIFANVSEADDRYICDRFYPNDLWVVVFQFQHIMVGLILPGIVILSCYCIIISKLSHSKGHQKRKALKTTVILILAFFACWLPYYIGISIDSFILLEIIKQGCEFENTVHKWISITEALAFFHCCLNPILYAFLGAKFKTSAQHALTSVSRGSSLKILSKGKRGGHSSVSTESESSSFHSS
T2 sequence (P70658 whole entry): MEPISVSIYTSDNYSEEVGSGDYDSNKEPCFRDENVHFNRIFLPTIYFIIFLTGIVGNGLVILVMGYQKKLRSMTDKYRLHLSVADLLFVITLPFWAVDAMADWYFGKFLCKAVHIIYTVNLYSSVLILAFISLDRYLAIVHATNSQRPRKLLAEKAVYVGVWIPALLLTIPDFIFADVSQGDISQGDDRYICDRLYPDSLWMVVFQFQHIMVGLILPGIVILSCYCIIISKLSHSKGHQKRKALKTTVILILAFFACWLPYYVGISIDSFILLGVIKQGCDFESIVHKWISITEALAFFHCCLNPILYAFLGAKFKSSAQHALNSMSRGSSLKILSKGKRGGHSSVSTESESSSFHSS
T5 sequence (P79394 whole entry): as the sequence (P61073 whole entry) above, with M24I, N35H, K38R, R146K, N176S, V214D counted along it

Binder | reactivity (MFI of chimeric receptor/MFI of wild type CXCR4 x 100%) (mouse CXCR4) | reactivity (MFI of chimeric receptor/MFI of wild type CXCR4 x 100%) [1] | reactivity (MFI of chimeric receptor/MFI of wild type CXCR4 x 100%) (human CXCR4 (wild type) [2]) | reactivity (MFI of chimeric receptor/MFI of wild type CXCR4 x 100%) [3] | reactivity (MFI of chimeric receptor/MFI of wild type CXCR4 x 100%) (2442 CXCR2/CXCR4 chimera [4]) | reactivity (MFI of chimeric receptor/MFI of wild type CXCR4 x 100%) (2242 CXCR2/CXCR4 chimera) | reactivity (MFI of chimeric receptor/MFI of wild type CXCR4 x 100%) (Δ-X4) | reactivity (MFI of chimeric receptor/MFI of wild type CXCR4 x 100%) (4442 CXCR2/CXCR4 chimera [5]) | reactivity (MFI of chimeric receptor/MFI of wild type CXCR4 x 100%) (CXCR2) | binding (+%) [6] | binding (+%) (human CXCR4 (wild type) [7]) | binding (+%) (2442 CXCR2/CXCR4 chimera [8]) | binding (+%) (4442 CXCR2/CXCR4 chimera [9])
B1 | 5.6% | 8.5% | 100% | 35.1% | 7.1% | 5.2% | 11% | 5.3% | 7.5% | – | – | – | –
B2 | – | – | – | – | – | – | – | – | – | 1% | 100% | 1.5% | 99.5%
B3 | – | – | – | – | – | – | – | – | – | -2.3% | 100% | -2.9% | 91.9%
B4 | 13.1% | 28.5% | 100% | 89.1% | 37.8% | 10.1% | 48.1% | 35.2% | 2% | – | – | – | –

— US20110250165A1 (Dana-Farber, published 2011)
